The values below come from PMC12575849.

Data set [1] deals with unmodified nucleosome (recombinant human histone octamer on Widom 601 DNA) (human) (UniProt P04908). In words: native gel or EMSA; purified CHD1 titrated against 5 nM IR dye-conjugated nucleosome in EMSA buffer (10 mM HEPES pH 8.0, 75 mM NaCl, 5 mM MgCl2, 10% glycerol, 1 mM DTT, 0.1 mg/ml BSA), 30 min at 30 °C, native PAGE; shifted fraction fitted to a dose-response curve. For orientation: Mobility shift assays separate free from complexed probe on a gel.

The next data set has as its system CHD1 deltaNC (human). Kind of data set: EMSA. The note with it: 5 mM Mg2+, no ATP listed; 10 mM HEPES pH 8.0, 75 mM NaCl, 5 mM MgCl2, 10% glycerol, 1 mM DTT, 0.1 mg/ml BSA; 5 nM nucleosome; 30 min at 30 C; native PAGE.
The test system of the next data set is CHD1 WT (human). In words: EMSA. The note with it: 5 mM Mg2+, no ATP listed; 10 mM HEPES pH 8.0, 75 mM NaCl, 5 mM MgCl2, 10% glycerol, 1 mM DTT, 0.1 mg/ml BSA; 5 nM nucleosome; 30 min at 30 C; native PAGE.

Sequence of recombinant CHD1^WT protein (O14646 whole entry): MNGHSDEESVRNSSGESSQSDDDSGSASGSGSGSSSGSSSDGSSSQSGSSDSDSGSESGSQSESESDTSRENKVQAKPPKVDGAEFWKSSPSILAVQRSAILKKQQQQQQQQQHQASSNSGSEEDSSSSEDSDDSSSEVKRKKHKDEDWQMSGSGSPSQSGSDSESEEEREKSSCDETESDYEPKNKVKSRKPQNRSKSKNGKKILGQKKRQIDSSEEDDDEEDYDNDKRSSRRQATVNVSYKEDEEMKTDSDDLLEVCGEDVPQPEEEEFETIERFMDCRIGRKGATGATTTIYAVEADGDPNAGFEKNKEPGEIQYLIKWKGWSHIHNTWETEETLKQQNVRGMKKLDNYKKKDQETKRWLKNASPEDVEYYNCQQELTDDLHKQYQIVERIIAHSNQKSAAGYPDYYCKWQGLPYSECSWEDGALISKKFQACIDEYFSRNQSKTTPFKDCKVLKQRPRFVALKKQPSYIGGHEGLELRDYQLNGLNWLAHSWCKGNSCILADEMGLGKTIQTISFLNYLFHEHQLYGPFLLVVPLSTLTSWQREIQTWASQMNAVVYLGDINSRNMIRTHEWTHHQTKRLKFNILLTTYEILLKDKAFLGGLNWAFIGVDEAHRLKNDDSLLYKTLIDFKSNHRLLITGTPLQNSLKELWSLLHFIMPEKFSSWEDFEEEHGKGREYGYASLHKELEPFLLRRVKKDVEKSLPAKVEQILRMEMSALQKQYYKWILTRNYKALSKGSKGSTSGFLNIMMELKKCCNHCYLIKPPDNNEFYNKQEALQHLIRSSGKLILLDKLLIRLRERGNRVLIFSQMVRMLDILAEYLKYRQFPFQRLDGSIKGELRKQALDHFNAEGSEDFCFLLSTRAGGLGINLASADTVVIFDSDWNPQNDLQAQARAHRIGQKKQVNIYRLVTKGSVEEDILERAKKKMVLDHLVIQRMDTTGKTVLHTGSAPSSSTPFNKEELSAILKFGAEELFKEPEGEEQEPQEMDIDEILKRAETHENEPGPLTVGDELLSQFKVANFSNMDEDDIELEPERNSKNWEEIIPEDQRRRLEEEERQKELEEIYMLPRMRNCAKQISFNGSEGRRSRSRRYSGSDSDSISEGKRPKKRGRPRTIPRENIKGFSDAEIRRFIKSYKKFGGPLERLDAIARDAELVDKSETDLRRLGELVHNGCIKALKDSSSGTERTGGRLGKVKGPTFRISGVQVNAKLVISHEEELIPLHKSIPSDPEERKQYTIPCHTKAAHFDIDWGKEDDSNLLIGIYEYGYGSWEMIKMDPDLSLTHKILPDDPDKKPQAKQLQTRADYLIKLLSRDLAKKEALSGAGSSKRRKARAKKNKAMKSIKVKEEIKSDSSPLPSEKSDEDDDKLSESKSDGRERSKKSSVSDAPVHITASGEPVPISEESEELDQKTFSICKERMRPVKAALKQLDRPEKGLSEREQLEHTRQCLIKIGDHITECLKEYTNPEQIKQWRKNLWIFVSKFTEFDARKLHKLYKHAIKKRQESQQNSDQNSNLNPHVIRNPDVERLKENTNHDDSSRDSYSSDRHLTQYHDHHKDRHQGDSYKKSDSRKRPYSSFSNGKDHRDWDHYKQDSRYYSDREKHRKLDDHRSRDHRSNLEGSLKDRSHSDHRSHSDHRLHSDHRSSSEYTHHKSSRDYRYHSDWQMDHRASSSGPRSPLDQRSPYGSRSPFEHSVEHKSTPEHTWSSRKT

By Kd is commonly meant a measure of binding affinity in units of concentration. Take “recombinant CHD1^WT protein (from UniProt O14646 1-1710) (natural protein)”: the Kd in data set [1] worked out at 0.221 µM.

With Widom 601 nucleosome (unmodified), the figures for the equilibrium dissociation constant (Kd) in the data set with CHD1 deltaNC (human) and with CHD1 WT (human) were 0.0063 µM and 0.221 µM, respectively.
